From the nanobody polyreactivity screen of Harvey et al. (2022)

Experiment: yeast display, Sf9 membrane polyspecificity reagent, FACS + sequencing; frameworks hold sequencing errors
Procedure, shortened: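 Sorting gates, low and high (top ~1%), were placed on anti-HA fluorescence to track expression and on streptavidin fluorescence to track reagent binding. A clone's polyreactivity label is taken from the gate it came out of. The reagent was 10% biotinylated, detergent-solubilized Sf9 membrane, applied for 1 hour at 4 °C to galactose-induced yeast display cells.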

Row | Sequence | polyreactivity (PSR sort gate)
1 | QVQLVESGGGLVQAGGSLRLSCAASGFTFYSYAMGWSRQAPGKERELVAAISGGGGSTYYADSVKGRFTISRDNAKNTVYLQMNSLKPEDTAVYYCAKRPAYRGYGLGYYWGQGTQVTVSS | high polyreactivity
2 | QVQLVESGGGLVQAGGSLRLSCAASGFTFYSYAMGWYRQAPGKERELVAAISWSGTRTYYADSVKGRFTISRDNAKNTVYLQMNSLKPEDTAVYYCAARGYRYGYGYWGQGTQVTVSS | high polyreactivity
3 | QVQLVESGGGLVQAGGSLRLSCAASGFTFYSYAMGWYRQAPGKERELVAAITDRGGSTYYADSVKGRFTISRDNAKNTVYLQMNSLKPEDTAVYYCAAASGIRSYSYGWLGREYYWGQGTQVTVSS | high polyreactivity
4 | QVQLVESGGGLVQAGGSLRLSCAASGFTFYSYAMGWYRQAPGKERELVAAITQSGGSTYYADSVKGRFTISRDNAKNTVYLQMNSLKPEDTAVYYCAADIYNDYDYGYYYWGQGTQVTVSS | low polyreactivity
5 | QVQLVESGGGLVQAGGSLRLSCAASGFTFYSYAMGWYRQAPGKERELVAAITRSGGNTYYADSVKGRFTISRDNAKNTVYLQMNSLKPEDTAVYYCAAPGKGISPSHYYWGQGPQVTVSS | high polyreactivity
6 | QVQLVESGGGLVQAGGSLRLSCAASGFTFYSYAMGWYRQAPGKERELVASISQSGGRTYYADSVKGRFTISRDNAKNTVYLQMNSLKPEDTAVYYCARQRSYGRSSYSYGYDYWGQGTQVTVSS | high polyreactivity
7 | QVQLVESGGGLVQAGGSLRLSCAASGFTFYSYAMGWYRQSPGKERELVAAISWSGTRTYYADSVKGRFTISRDTAKNTVYLQMNSLKPEDTAVYYCAARGYRYGYGYWGQGTQVTVSS | high polyreactivity
8 | QVQLVESGGGLVQAGGSLRLSCAASGFTFYSYVMGWYRQAPGKERELVAAIDPSGGRTYYADSVKGRFTISRDYAKNTVYLQMNSLKPVDTAVYYCAVPRVDYWGQGTQVTVSS | high polyreactivity
9 | QVQLVESGGGLVQAGGSLRLSCAASGFTFYSYVMGWYRQAPGKERELVAAISWSGGSTYYADSVKGRFTISRDNAKNTVYLQMNSLKPEDTAVYYCAARRYASRTGYLYDYWGQGTQVTVSS | high polyreactivity
10 | QVQLVESGGGLVQAGGSLRLSCAASGFTFYTNVMGWYRQAPGKERELVAAINSGGSTNYADSVKGRFTISRDNAKNTVYLQRNSLKPEDTAVYYCNKRGTEIGYDYWGQGTQVTVLS | low polyreactivity
11 | QVQLVESGGGLVQAGGSLRLSCAASGFTFYTYAMGWYRQAPGKERELVADISSGGSTNYADSVKGRFTISRDNAKNTVYLQMNSLKPEDTAVYYCSADYYFLDWYDYWGQGTQVTVSS | low polyreactivity
12 | QVQLVESGGGLVQAGGSLRLSCAASGFTFYTYMGWYRQAPGKERELVAAISWSGDSTYYADSVKGRFTISRDNAKNTVYLQMKSLKPEDTAVYYCAARRVFYNGYYVNVGSFYYWGQGTQVTVSS | low polyreactivity
13 | QVQLVESGGGLVQAGGSLRLSCAASGFTFYTYTMGWYRQAPGKERELVAVITSRGTRTYYADSVKGRFTISRDNAKNTVYLQMNSLKPEDTAVYYCNKGAGWSFGYWGQGTQVTVSS | high polyreactivity
14 | QVQLVESGGGLVQAGGSLRLSCAASGFTFYTYVMGWYRQAPGKERELVAAITSGVSTNYADSVKGRFTISRDNAKNTVYLQMNSVKPEDTAVYYCAAGYPSWYYGYPYDSWGQGTQVTVSS | low polyreactivity
15 | QVQLVESGGGLVQAGGSLRLSCAASGFTFYVYAMGWDRQAPGKEREFVAAISSSGGSTYYADSVKGRFTISRDNAKNTVYLQMNSLKPEDTAVYYCAALAYSTTRGRLDYWGQGTQVTVSS | high polyreactivity
16 | QVQLVESGGGLVQAGGSLRLSCAASGFTFYVYAMGWYRQAPGKERELVAAISRGGSTYYADSVKGRFTISRDNAKNTVYLQMNSLKPEDTAVYYCNRVPYVSSSKVRYSNGFDYWGQGTQVTVSS | low polyreactivity
17 | QVQLVESGGGLVQAGGSLRLSCAASGFTFYVYVMGWYRPAPGKERELVAGISRGGSTYYADSVKGRFTISRDTAKNTVYLQMNSLKPEDTAVYYCNARRAWSSTYGYWGQGTQVTVSS | high polyreactivity
18 | QVQLVESGGGLVQAGGSLRLSCAASGFTFYWNTMGWYRPAPGKERELVAAISWSGGDTDYADSVKGRFTISRDNAKNTVYLQMNSLKPEDTAVYYCNSIYVSDRSSAVSFDYWGQGTQVNVSS | low polyreactivity
19 | QVQLVESGGGLVQAGGSLRLSCAASGFTFYWYAMGWYRQAPGKEREFVAAIDQSGGSTYYADSVKGRFTISRDNAKNTVYLQMNSLKPEDTAVYYCAAAYLRYVSTQYHYDYWGQGTQVTVSS | low polyreactivity
20 | QVQLVESGGGLVQAGGSLRLSCAASGFTFYWYAMGWYRQAPGKEREFVAAIDQSGGSTYYADSVKGRFTISRDNAKNTVYLQMNSLKPEDTAVYYCAARYILWDGDSWTEFDYWGQGTQVTVSS | low polyreactivity
21 | QVQLVESGGGLVQAGGSLRLSCAASGFTFYWYAMGWYRQAPGKERELVAAISRGGSTNYADSVKGRFTISRDNAKNTVYLQMNSLKPEDTAVYYCARDNPYRWFYRYVGEGDYWGQGTQVTVSS | low polyreactivity
22 | QVQLVESGGGLVQAGGSLRLSCAASGFTFYWYAMGWYRQAPGKERELVAAITSGGGTTYYADSVKGRFTISRDNAKNTVYLQMNSLKPEDTAVYYCAADSYTYPWIERDYWGQGTQVTVSS | high polyreactivity

Row | Sequence | polyreactivity (PSR sort gate)
23 | QVQLVESGGGLVQAGGSLRLSCAASGFTFYYNAMGWYRQAPGKERELVAAISASGGRTYYADSVKGRFTISRDNAKNTVYLQINSLKPEDTAVYYCAYRVYPHYGWYDYWGQGTQVTVSS | high polyreactivity
24 | QVQLVESGGGLVQAGGSLRLSCAASGFTFYYNAMGWYRQAPGKERELVAAISSRGTSTYYADSVKGRFTISRDNAKNTVYLQMNSLKPEDTAVYYCNTDRIGRYYQSYGGGHMDYWGQGTQVTVSS | high polyreactivity
25 | QVQLVESGGGLVQAGGSLRLSCAASGFTFYYNAMGWYRQAPGKERELVAAISTGGSTYYADSVKGRFTISRDNAKNTVYLQMNSLKPEDTAVYYCAAKTYGRRWSYYYWGQGTQVTVSS | high polyreactivity
26 | QVQLVESGGGLVQAGGSLRLSCAASGFTFYYNAMGWYRQAPGKERELVAAISTRGGNTYYADSVKGRFTISRDNAKNTVYLQMNSLKPEDTAVYYCARKIRREGRYDYWGQGTQVTVSS | high polyreactivity
27 | QVQLVESGGGLVQAGGSLRLSCAASGFTFYYNAMGWYRQAPGKERELVAAITWDGGRTYYADSVKGRYTISRDNAKNTVYLQMNSLKTVDTAVYYCAAVEYSEHWDGYSWGEYYYWGQGTQVTVSS | high polyreactivity
28 | QVQLVESGGGLVQAGGSLRLSCAASGFTFYYNAMGWYRQAPGKERELVAAMSGRGGSTHYADSVKGRFTISRDNAKNTVYLQMNSLKPEDTAVYYCNKVVRGSPEFDYWGQGTQVTVSS | high polyreactivity
29 | QVQLVESGGGLVQAGGSLRLSCAASGFTFYYNARGWYRQAPGKERELVASITRSGGRTYYADSVKGRFTISRDNAKNTVYLQMNSLKPEDTAVYYCAAANHKGSRMDYWGQGTQVTVSS | high polyreactivity
30 | QVQLVESGGGLVQAGGSLRLSCAASGFTFYYYAMGGYSQAPGKERELVAAISSTGGSTYYADSVKGRFTISRDNAKNTVYLQMNSLKPEDTAVYYCNAAGYRYPGDYDFWGQGTQVTVSS | high polyreactivity
31 | QVQLVESGGGLVQAGGSLRLSCAASGFTFYYYAMGWYRQAPGKERELVAAIDTSDGSTYYADSVKGRFTISRDNAKNTVYLQMNSLKPEDTAVYYCAAEVDCVPFLLDYWGQGTQVTVSS | low polyreactivity
32 | QVQLVESGGGLVQAGGSLRLSCAASGFTFYYYAMGWYRQAPGKERELVAAISRSGGSTYYADSVKGRFTISRDNAKNTVYLQMNSLKQEDTAVYYCAARRLVGAERPGYDDWGQGTQVTVSS | high polyreactivity
33 | QVQLVESGGGLVQAGGSLRLSCAASGFTFYYYAMGWYRQAPGKERELVAAISSGGSTNYADSVKGRFTISRDNAKNTVYLPRNSLKPEDTAVYYCAAPQPYWWAYRYDYWGQGTQVTVSS | low polyreactivity
34 | QVQLVESGGGLVQAGGSLRLSCAASGFTFYYYAMGWYRQAPGKERELVAGISKSGGITYYADSVKGRFTISLDNAKNTVYLQMNSLKPEDTAVYYCAAAEWYQFFIYRYTYEYWGQGTQVTVSS | low polyreactivity
35 | QVQLVESGGGLVQAGGSLRLSCAASGFTFYYYAMGWYRQAPGKERELVASISWRGGSTYYADSVKGRFTISRDNAKNTVYLQMNSLKPEDTAVFYCAAQKRGSPGYRRDYWGQGTQVTVSS | high polyreactivity
36 | QVQLVESGGGLVQAGGSLRLSCAASGFTFYYYAMGWYRQAPGKERELVATIRWSGGSTYYADSVKGRFTISRDNAKNTVYLQMNSLKPEDTAVYYCNATPPQYVKYPSYKYDYWGQGTQVTVSS | low polyreactivity
37 | QVQLVESGGGLVQAGGSLRLSCAASGFTIFGYAMGWYRQAPGKERELVAAISTIDGDTYYADSVKGRFTISRDNAKNTVYLQMNSLKPEDTAVYYSAADDYIDGDDYWGQGTQVTVSS | low polyreactivity
38 | QVQLVESGGGLVQAGGSLRLSCAASGFTIHGNAMGWYRPAPGKERELVAGISSSGASTYYADSVKGRFTISRDNAKNTVFLQMNSLKPEDTAVYYCAVRYYGRYLRYNYWGQGTQVTVSS | high polyreactivity
39 | QVQLVESGGGLVQAGGSLRLSCAASGFTIIIYAMGWYRQAPGKERQLVAAINTSGTRTYYADSVKGRFTISRDNAKNTVYLQMNSLKPEDTAVYYCAARSGYKGEHGDRDDYWGQGTQVTVSS | high polyreactivity
40 | QVQLVESGGGLVQAGGSLRLSCAASGFTIIRYAMGWYRQAPGKERDLVAAITTSGSGTYYAHSVKGRFTISRDNAKNTVYLQMNSLKPEDTAVDYCATDYRYRSYSRGAHDYWGQGTQVTVSS | low polyreactivity
41 | QVQLVESGGGLVQAGGSLRLSCAASGFTIQFYTMGWYRQAPGKERELVAAISYNGDSTYYADSVKGRFTISRDNAKNTVYLQMNSLKPEDTAVYYCNTDLGTIYYYGYDYWGQGTQVTVSS | high polyreactivity
42 | QVQLVESGGGLVQAGGSLRLSCAASGFTIQRYAMGWSRQAPGKERELVAAITSGGSTYYADSVKGRFTISRDNAKNTVYLQMNSLKPEDTAVYYCAAYYRGRAYISYGYWGQGTQVTVSS | high polyreactivity
43 | QVQLVESGGGLVQAGGSLRLSCAASGFTIRQYAMGWYRQAPGKERELVAAISGRGGTTYYADSVKGRFTISRDNAKNTVYLQMNSLKPEDTAVYYCAARTFDRGKIPPPYDYWGQGTQVTVSS | high polyreactivity
